Assay [1] addresses T1, human CD300LB on primary human monocytes (human, UniProt A8K4G0 18-201).
T1 construct: Endogenous protein on primary cells; that the target is CD300LB is inferred from the antibodies being anti-CD300LB antibodies; also called Monocyte donor 1281; Monocyte donor 1282
T1 sequence: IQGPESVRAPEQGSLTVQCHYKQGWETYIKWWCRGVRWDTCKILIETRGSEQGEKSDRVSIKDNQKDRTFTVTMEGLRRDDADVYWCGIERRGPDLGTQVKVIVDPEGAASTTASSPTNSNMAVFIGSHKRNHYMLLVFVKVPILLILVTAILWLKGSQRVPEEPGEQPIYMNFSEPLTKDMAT
Put plainly: flow cytometry, primary human monocytes donor 1281, 10 ug/mL antibody, isotype control subtracted. The procedure:
(§1) Human monocytes from various donors were isolated from whole blood using RosetteSep Human Monocyte Enrichment Cocktail (Stemcell technologies) and Ficoll centrifugation per manufacturer protocols. After lysing red blood cells with ACK lysing buffer, monocytes were resuspended in complete media (RPMI, 10% FBS, Pen/Strep, L-glutamine, HEPES, non-essential amino acid, Sodium pyruvate). To obtain macrophages from these isolated monocytes, 100 ng/ml human M-CSF and 8% v/v human serum were added to the cells for 5-7 days. Cells were counted on the day of the experiment and plated at 100,000 cells per well in a round-bottom 96 well plate. Cells were incubated with TruStain Fc block and 10 μg/mL antibody for 1 hour on ice before washing with 250 μL ice cold PBS twice. Cells were then incubated with the appropriate APC-conjugated secondary antibodies for 20 minutes in the dark on ice. Finally, cells were washed twice with ice cold FACS buffer and then resuspended in 100 μL FACS buffer containing 1% propidium iodide. Samples were immediately analyzed using a BD FACSCanto flow cytometer. The gMFI was calculated using FlowJo software minus the gMFI of the appropriate isotype control.

Assay [2] concerns the target T2, human CD300LB on primary human macrophages (human, UniProt A8K4G0 18-201).
T2 sequence: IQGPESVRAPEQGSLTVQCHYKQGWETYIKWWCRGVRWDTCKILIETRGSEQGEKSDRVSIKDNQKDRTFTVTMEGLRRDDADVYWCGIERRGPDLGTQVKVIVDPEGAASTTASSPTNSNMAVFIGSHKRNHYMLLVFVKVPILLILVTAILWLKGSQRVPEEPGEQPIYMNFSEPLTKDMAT
Put plainly: flow cytometry, primary human macrophages donor 1277, 10 ug/mL antibody, isotype control subtracted. Here is the method: as §1
Background: A flow cytometer gives signals particle by particle.

Assay [3] addresses T3, huCD300LB-DAP12 fusion constitutively expressed on 293 Freestyle (Freestyle HEK) cells (human).
T3 construct: also called Human CD300LB-DAP12 chimera
Put plainly: flow cytometry, geometric mean (APC-A), FreeStyle HEK cells expressing huCD300LB. Here is the method:
Other members of the human CD300 family share sequence homology with human CD300LB. Thus, counter screens against binding of the anti-CD300LB antibodies to huCD300A, huCD300C, huCD300LD, huCD300E, huCD300LF, and huCD300G by stable overexpression in Freestyle HEK cells (generation of which is described above) were performed as follows. Cells were counted and labeled with 200 nM CFSE, 500 nM VioBlue, or a combination of the two to discriminate between CD300LB, Parental cells, and the other CD300 family members. Cells were washed thoroughly with PBS containing 2% fetal bovine serum then resuspended at a total of 240,000 cells per well. Hybridoma supernatants (100 L) or purified antibodies at various concentrations were added and incubated for one hour before the cells were washed twice again and stained with an APC-labeled anti-human or anti-mouse secondary antibody. Cells were then analyzed using a BD FACSCanto II. Anti-CD300LB antibodies were analyzed for specific binding to human CD300LB by FlowJo software by gating on live cells, then the APC geometric mean fluorescence intensity (gMFI) calculated for each labeled population. The results are shown in […]

The target of assay [4] is T4, murine CD300F stably expressed on Jurkat cells (mouse, UniProt Q6SJQ7 20-337).
T4 construct: also called muCD300F
T4 sequence: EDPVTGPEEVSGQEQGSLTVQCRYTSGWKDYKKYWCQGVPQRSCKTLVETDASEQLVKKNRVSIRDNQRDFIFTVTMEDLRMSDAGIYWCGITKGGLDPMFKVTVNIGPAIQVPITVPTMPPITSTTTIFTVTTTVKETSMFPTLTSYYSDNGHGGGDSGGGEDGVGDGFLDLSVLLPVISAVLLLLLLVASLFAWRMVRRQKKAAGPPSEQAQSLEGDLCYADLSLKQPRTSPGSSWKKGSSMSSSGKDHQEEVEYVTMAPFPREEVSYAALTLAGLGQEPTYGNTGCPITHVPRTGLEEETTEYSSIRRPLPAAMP
Put plainly: flow cytometry, stable Jurkat cells, 10 ug/mL, isotype subtracted. The procedure: Purified anti-CD300LB antibodies of the present disclosure were analyzed for cross-reactivity to other murine CD300 family members stably expressed in Jurkat cells (generation of which is described above). Cells were counted and labeled with 200 nM CFSE, 500 nM VioBlue, or a combination of the two to discriminate between muCD300LB, Parental cells, CD300F, and the other CD300 family members. Cells were washed thoroughly with PBS containing 2% fetal bovine serum then resuspended at a total of 240,000 cells per well. Purified antibodies at 10 μg/mL were added and incubated for one hour before the cells were washed twice again and stained with an APC-labeled anti-mouse secondary. Cells were then analyzed using a BD FACSCanto II. Antibodies were analyzed for specific binding to muCD300LB by FlowJo software by gating on live cells, then the APC gMFI calculated for each labeled population by subtracting the gMFI of the isotype control. The gMFI results of the analysis are presented below in Table 4.

B1: anti-CD300LB antibody CD-07 (antibody, V domains shown)
VH: QVQLVQSGAEVKKPGASVKVSCKASGYTFTNYRMHWVRQAPGQGLEWMGWINPNSGGTIYAQKFQGRVTMTRDTSTSTVYMELSSLRSEDTAVYYCARDLDYWGQGTLVTVSS
VL: DIQMTQSPSSLSASVGDRVTITCQASQDISNYLNWYQQKPGKAPKLLIYGASSLQSGVPSRFSGSGSGTDFTLTISSLQPEDFATYYCQQSYSTPWTFGPGTKVEIK
On to B1, for which the results for the gMFI in assay [1] and in assay [2] were 43 gMFI and 3790 gMFI, respectively. Also, the EC50 (read off the curve) (usually the concentration that produces a half-maximal response) in assay [3] is ~20 nM.

B2: anti-CD300LB antibody CD-06 (antibody, V domains shown)
VH: QVQLVQSGAEVKKPGASVKVSCKASGYTFTTYAVHWVRQAPGQGLEWMGIVNPNSGGTNYAQKFQGRVTMTRDTSTSTVYMELSSLRSEDTAVYYCARDIVPMNNFYNYYYGMDVWGQGTTVTVSS
VL: DIQMTQSPSSLSASVGDRVTITCRASQSISSYLNWYQQKPGKAPKLLIYATSTLQSGVPSRFSGSGSGTDFTLTISSLQPEDFATYYCQQSYRIPYTFGQGTKVEIK
Take B2: the results for the gMFI in assay [1] and in assay [2] were 1650 gMFI and 24000 gMFI, respectively.

B3: anti-CD300LB antibody CD-05 (antibody, V domains shown)
VH: QVQLVQSGAEVKKPGASVKVSCKASGYTFSRYYINWVRQAPGQGLEWMGWINPNSGGTNYAQKFQGRVTMTRDTSTSTVYMELSSLRSEDTAVYYCTTDQLRFGKTGPYYGMDVWGQGTTVTVSS
VL: DIQMTQSPSSLSASVGDRVTITCRASQNIGTYLNWYQQKPGKAPKLLIYAASSLQSGVPSRFSGSGSGTDFTLTISSLQPEDFATYYCQQSYSDTLTFGGGTKVEIK
In the case of B3, the results for the gMFI in assay [1] and in assay [2] were 736 gMFI and 68600 gMFI, respectively.

B4: anti-CD300LB antibody CD-11 (antibody, V domains shown)
VH: QIQLVQSGPEVKKPGETVKISCKASGYTLTDYSMHWVMQTPGTGLKWMAWMNTETGEPTYADDFKGRFAFSLETSAGTAYLQIDNLKNEDTATYFCATYGKSYGMKYWGQGTSVTVSS
VL: DIVLTQSPPSLAVSLGQRATISCRATKSVSPYLHWYQQTPGQPPKLLIYLASNLDSGVPARFSGSGSGTDFTLNIHPVEEEDAATYYCQHNKELPPTFGGGTRLEIK
With B4, the gMFI in assay [4] worked out at 2.35 gMFI.

B5: anti-CD300LB antibody CD-01 (antibody, V domains shown)
VH: RVQLQQSGAELVRPGASVTLSCKASGFTFTDFEMHWVKKTPVHGLEWIGAIDPESGNTAYNQKFRGKATLTADKSSSTAYMELRYLTSEDSAVYYCTPLISGADYWGQGTTLTVSS
VL: DVVMTQSPLSLPVSLGDQASISCRSSQSLVHSDGNTYLYWYLQKPGQSPKLLIYKVSNRFSGVPDRFSGSGSGTDFTFKISRVGAEDLGVYFCSQSTHVPWTFGGGTKLEII
B5: the binding result in assay [3] is “no binding”.

B6: anti-CD300LB antibody CD-18 (antibody, V domains shown)
VH: DVQLQESGPDLVKPSQSLSLTCTVTGYSITSGYSWHWIRQFPDNKLEWMGYILSRGDTNFNPSLKSRISITRSTSNNQFFLHFNSVTTEDTATYYCARDFFDYWGQGTTLTVSS
VL: DVLMTQTPLSLPVSLGDQASISCRSSQSIVHSNGNTYLEWYLQKPGQSPKLLIYKVSDRFSGVPDRFSGSGSGTDFTLKISRVEAEDLGVYFCFQGSHVPYTFGGGTKLEIK
With B6, the gMFI in assay [4] is 6.6 gMFI.

B7: anti-CD300LB antibody CD-12 (antibody, V domains shown)
VH: QIQLVQSGPELKKPGETVKISCKASGYTFTDYSMHWVRQAPGKGLKWMAWINTETGEATHADDFKGRFDFSLDTSASTAYLQIKNLKNEDTGIYFCVCYGSSYGMDYWGQGTSVTVSS
VL: DIVLTQSPASLPVSLGQRATISCRASKSVRTSGASYMHWYQQKPGQPPKLLIYLASNLKSGVPTRFSGSGSGTDFTLNIHPVEEEDAATYYCQHNREVPPTFGGGTKLEIK
Take B7: the gMFI in assay [4] amounted to 2.1 gMFI.

B8: anti-CD300LB antibody CD-15 (antibody, V domains shown)
VH: QIQLVQSGPELKKPGETVKISCQVSGYTFTDYSMHWLKQAPGKGLKWMAWINTETGESTYTDEFKGRFVFSLETSVRTAYLKINNLKNEDTATYFCGTYGSSYGMAYWGQGTSVTVSS
VL: DIVLTQSPASLPVSLGQRATISCRASKSVSTSGSSYLHWYQQKPGQPPKLLIYLASKLESGVPARFRGSGSGTDFTLNIHPVEEEDAATYYCQHNREVPPTFGGGTKLEIK
Consider B8, for which, in assay [4], the gMFI worked out at 1.85 gMFI.

B9: anti-CD300LB antibody CD-17 (antibody, V domains shown)
VH: QIQLVQSGPELKKPGETVKISCKASGYTLTDYSMHWVKQAPGKGLKWMGWINTETGEPRYGDDFKGRFAFSLETSASSAYLQINNLKNDDTATYFCATYGRSYGMDFWGQGTSVTVSS
VL: DIVLTQSPASLAVSLGQRATISCRASKSVSPSGHSYMHWYQQKPGQPPKLLIYLASNLKSGVPARFSGSGSGTDFTLNIHPVEEGDAATYYCQHNRELPPTFGGGSKLEIK
For the molecule B9, the gMFI in assay [4] came to 1.7 gMFI.

B10: anti-CD300LB antibody CD-02 (antibody, V domains shown)
VH: QVQLQQPGAELVRPGSSVKLSCQASGYTFTNYWMHWVRQRPIQGLEWIGNIDPSDSETHYNQKFKDRATLTVDKSSSTAYMQLSSLTSEDSAVYYCARSGVYDDEGGDYWGQGTTLTVSS
VL: ENVLTQSPAIMSASPGEKVTMTCSASSSVSYIHWYQQKSSTSPKLWIYDTSKLASGVPGRFSGSGSGNSYSLTISSMETEDVATYYCFQGSGYPLTFGAGTKLELK
Turning to B10, the binding result in assay [3] is on record as “no binding”.

(Values after patent publication US20240254227A1 (Alector, published 2024).)
